Experimental data from PMC7680125.

What was measured:
[1] = target: Isw1 (ISW1a catalytic subunit);Ioc3 (Saccharomyces cerevisiae (BY4742?);Saccharomyces cerevisiae (BY4742)) (UniProt P38144+P43596); test: EMSA; conditions: 35 mM Na-HEPES pH 7.8, 5 mM MgCl2, 0.1 mM EGTA, 0.02 M EDTA (so in the source), 70 mM NaCl, 0.1 mg/ml BSA, 5-8% glycerol, 40 uM 2-mercaptoethanol, 30 C, 30 min …
[2] = target: Isw1 (ISW1a catalytic subunit);Ioc3 dcHLB del496-565 (Saccharomyces cerevisiae (BY4742?);Saccharomyces cerevisiae (BY4742)) (UniProt P38144+P43596); test: EMSA; conditions: 35 mM Na-HEPES pH 7.8, 5 mM MgCl2, 0.1 mM EGTA, 0.02 M EDTA (so in the source), 70 mM NaCl, 0.1 mg/ml BSA, 5-8% glycerol, 40 uM 2-mercaptoethanol, 30 C, 30 min …

| Substance | Kd [1] | Kd [2] |
| --- | --- | --- |
| 0N70 mononucleosome | 30.3 nM | 32.5 nM |
| CACCGGCACGGTCGCTGTTCGATACGTGCGCCGGACGTATATATCTGACACGTGCCTGGCGACTAGGGAGCGATCCCCTTGGCGGTTAAAACGCGGGGGACAGCGCGTACGTGCGTTTAAGCGGTGCTAGAGCTGTCTACGACCAATTGAGCGGCCTCGGCACCGGGAATCTCCAGGGCGGCCGCGTATAGGCTCCGGATCCTCTAGAGTCGACCTCGAAACGGGTACCCCAGGGACTTGAAGTAATAAGGACGGAGGGCCTCTTTCAACATCGATGCACGGTGGTTAGCCTTGGATTGCGCTCTACCGAGCGCTAAGCGTACTTAGAAGCGCGAGCGACGACTTCACACGGTAGGTGGGCGCGCGAACTGGGCAGATCC (double strand) [30(N1)50(N2)6 dinucleosome] | 10.2 nM | 28 nM |
| CCGGACGTATATATCTGACACGTGCCTGGCGACTAGGGAGCGATCCCCTTGGCGGTTAAAACGCGGGGGACAGCGCGTACGTGCGTTTAAGCGGTGCTAGAGCTGTCTACGACCAATTGAGCGGCCTCGGCACCGGGAATCTCCAGGGCGGCCGCGTATAGGCTCCGGATCCTCTAGAGTCGACCTCGAAACGGGTACCCCAGGGACTTGAAGTAATAAGGACGGAGGGCCTCTTTCAACATCGATGCACGGTGGTTAGCCTTGGATTGCGCTCTACCGAGCGCTAAGCGTACTTAGAAGCGCGAGCGACGACTTCACACGGTAGGTGGGCGCGCGAACTGGGCAGATCC (double strand) [0(N1)50(N2)6 dinucleosome] | 45.9 nM | 34.5 nM |
| TCGGAACGCTATCCGACTGGCACCGGCACGGTCGCTGTTCGATACGTGCGCCGGACGTATATATCTGACACGTGCCTGGCGACTAGGGAGCGATCCCCTTGGCGGTTAAAACGCGGGGGACAGCGCGTACGTGCGTTTAAGCGGTGCTAGAGCTGTCTACGACCAATTGAGCGGCCTCGGCACCGGGAATCTCCAGGGCGGCCGCGTATAGGCTCCGGATCCTCTAGAGTCGACCTCGAAACGGGTACCCCAGGGACTTGAAGTAATAAGGACGGAGGGCCTCTTTCAACATCGATGCACGGTGGTTAGCCTTGGATTGCGCTCTACCGAGCGCTAAGCGTACTTAGAAGCGCGAGCGACGACTTCACACGGTAGGTGGGCGCGCGAACTGGGCAGATCC (double strand) [50(N1)50(N2)6 dinucleosome] | 5.29 nM | 12.5 nM |
